To fix the notation:
B1: SEQ ID NO: 157 (Example No. 157) (peptide)
peptide: cyclo([TyrEtNAc]W[Phe(4-COOH)]G[Pro(trans-4-NH2)][Trp(βS-Me,4-F)]D[dNMeA]G[Bip(4'-COOH)][4Pal][Nva][dA][hTyr])
SMILES: CCC[C@@H]1NC(=O)[C@H](Cc2ccncc2)NC(=O)[C@H](Cc2ccc(-c3ccc(C(=O)O)cc3)cc2)NC(=O)CNC(=O)[C@@H](C)N(C)C(=O)[C@H](CC(=O)O)NC(=O)[C@H]([C@@H](C)c2c[nH]c3cccc(F)c23)NC(=O)[C@@H]2C[C@@H](N)CN2C(=O)CNC(=O)[C@H](Cc2ccc(C(=O)O)cc2)NC(=O)[C@H](Cc2c[nH]c3ccccc23)NC(=O)[C@H](Cc2ccc(OCCNC(C)=O)cc2)NC(=O)[C@H](CCc2ccc(O)cc2)NC(=O)[C@@H](C)NC1=O
B2: SEQ ID NO: 148 (Example No. 148) (peptide)
peptide: cyclo([TyrEtNAc]W[Phe(4-COOH)]G[Pro(trans-4-NH2)][Trp(4-Cl)(βS-Me)]D[dNMeA]G[Bip(4'-COOH)]WL[dA][hTyr])
SMILES: CC(=O)NCCOc1ccc(C[C@@H]2NC(=O)[C@H](CCc3ccc(O)cc3)NC(=O)[C@@H](C)NC(=O)[C@H](CC(C)C)NC(=O)[C@H](Cc3c[nH]c4ccccc34)NC(=O)[C@H](Cc3ccc(-c4ccc(C(=O)O)cc4)cc3)NC(=O)CNC(=O)[C@@H](C)N(C)C(=O)[C@H](CC(=O)O)NC(=O)[C@H]([C@@H](C)c3c[nH]c4cccc(Cl)c34)NC(=O)[C@@H]3C[C@@H](N)CN3C(=O)CNC(=O)[C@H](Cc3ccc(C(=O)O)cc3)NC(=O)[C@H](Cc3c[nH]c4ccccc34)NC2=O)cc1
B3: SEQ ID NO: 147 (Example No. 147) (peptide)
peptide: cyclo([TyrEtNAc]W[Phe(4-COOH)]G[Pro(trans-4-NH2)][Trp(4-Cl)(βS-Me)]D[dNMeA]G[Bip(4'-COOH)]W[hSOMe][dA][hTyr])
SMILES: COCC[C@@H]1NC(=O)[C@H](Cc2c[nH]c3ccccc23)NC(=O)[C@H](Cc2ccc(-c3ccc(C(=O)O)cc3)cc2)NC(=O)CNC(=O)[C@@H](C)N(C)C(=O)[C@H](CC(=O)O)NC(=O)[C@H]([C@@H](C)c2c[nH]c3cccc(Cl)c23)NC(=O)[C@@H]2C[C@@H](N)CN2C(=O)CNC(=O)[C@H](Cc2ccc(C(=O)O)cc2)NC(=O)[C@H](Cc2c[nH]c3ccccc23)NC(=O)[C@H](Cc2ccc(OCCNC(C)=O)cc2)NC(=O)[C@H](CCc2ccc(O)cc2)NC(=O)[C@@H](C)NC1=O
B4: SEQ ID NO: 152 (Example No. 152) (peptide)
peptide: cyclo([TyrEtNAc]W[Phe(4-COOH)]G[Pro(trans-4-NH2)][Trp(4-Cl)(βS-Me)]D[dNMeA]G[Bip(4'-COOH)]W[SerOMe][dA][hPhe])
SMILES: COC[C@@H]1NC(=O)[C@H](Cc2c[nH]c3ccccc23)NC(=O)[C@H](Cc2ccc(-c3ccc(C(=O)O)cc3)cc2)NC(=O)CNC(=O)[C@@H](C)N(C)C(=O)[C@H](CC(=O)O)NC(=O)[C@H]([C@@H](C)c2c[nH]c3cccc(Cl)c23)NC(=O)[C@@H]2C[C@@H](N)CN2C(=O)CNC(=O)[C@H](Cc2ccc(C(=O)O)cc2)NC(=O)[C@H](Cc2c[nH]c3ccccc23)NC(=O)[C@H](Cc2ccc(OCCNC(C)=O)cc2)NC(=O)[C@H](CCc2ccccc2)NC(=O)[C@@H](C)NC1=O
B5: SEQ ID NO: 149 (Example No. 149) (peptide)
peptide: cyclo([TyrEtNAc]W[Phe(4-COOH)]G[Pro(trans-4-NH2)][Trp(4-Cl)(βS-Me)]D[dNMeA]G[Bip(4'-COOH)]WL[dDab][hTyr])
SMILES: CC(=O)NCCOc1ccc(C[C@@H]2NC(=O)[C@H](CCc3ccc(O)cc3)NC(=O)[C@@H](CCN)NC(=O)[C@H](CC(C)C)NC(=O)[C@H](Cc3c[nH]c4ccccc34)NC(=O)[C@H](Cc3ccc(-c4ccc(C(=O)O)cc4)cc3)NC(=O)CNC(=O)[C@@H](C)N(C)C(=O)[C@H](CC(=O)O)NC(=O)[C@H]([C@@H](C)c3c[nH]c4cccc(Cl)c34)NC(=O)[C@@H]3C[C@@H](N)CN3C(=O)CNC(=O)[C@H](Cc3ccc(C(=O)O)cc3)NC(=O)[C@H](Cc3c[nH]c4ccccc34)NC2=O)cc1
B6: SEQ ID NO: 153 (Example No. 153) (peptide)
peptide: cyclo([TyrEtNAc]W[Phe(4-COOH)]G[Pro(trans-4-NH2)][Trp(4-Cl)(βS-Me)]D[dNMeA]G[Bip(4'-COOH)]W[SerOMe][dA][hTyr])
SMILES: COC[C@@H]1NC(=O)[C@H](Cc2c[nH]c3ccccc23)NC(=O)[C@H](Cc2ccc(-c3ccc(C(=O)O)cc3)cc2)NC(=O)CNC(=O)[C@@H](C)N(C)C(=O)[C@H](CC(=O)O)NC(=O)[C@H]([C@@H](C)c2c[nH]c3cccc(Cl)c23)NC(=O)[C@@H]2C[C@@H](N)CN2C(=O)CNC(=O)[C@H](Cc2ccc(C(=O)O)cc2)NC(=O)[C@H](Cc2c[nH]c3ccccc23)NC(=O)[C@H](Cc2ccc(OCCNC(C)=O)cc2)NC(=O)[C@H](CCc2ccc(O)cc2)NC(=O)[C@@H](C)NC1=O
B7: SEQ ID NO: 155 (Example No. 155) (peptide)
peptide: cyclo([TyrEtNAc]W[Phe(4-COOH)]G[Pro(trans-4-NH2)][Trp(βS-Me,4-F)]D[dNMeA]G[Bip(4'-COOH)][1Nal]S[dA][hTyr])
SMILES: CC(=O)NCCOc1ccc(C[C@@H]2NC(=O)[C@H](CCc3ccc(O)cc3)NC(=O)[C@@H](C)NC(=O)[C@H](CO)NC(=O)[C@H](Cc3cccc4ccccc34)NC(=O)[C@H](Cc3ccc(-c4ccc(C(=O)O)cc4)cc3)NC(=O)CNC(=O)[C@@H](C)N(C)C(=O)[C@H](CC(=O)O)NC(=O)[C@H]([C@@H](C)c3c[nH]c4cccc(F)c34)NC(=O)[C@@H]3C[C@@H](N)CN3C(=O)CNC(=O)[C@H](Cc3ccc(C(=O)O)cc3)NC(=O)[C@H](Cc3c[nH]c4ccccc34)NC2=O)cc1
B8: SEQ ID NO: 151 (Example No. 151) (peptide)
peptide: cyclo([TyrEtNAc]W[Phe(4-COOH)]G[Pro(trans-4-NH2)][Trp(4-Cl)(βS-Me)]D[dNMeA]G[Bip(4'-COOH)]WS[dA][hTyr])
SMILES: CC(=O)NCCOc1ccc(C[C@@H]2NC(=O)[C@H](CCc3ccc(O)cc3)NC(=O)[C@@H](C)NC(=O)[C@H](CO)NC(=O)[C@H](Cc3c[nH]c4ccccc34)NC(=O)[C@H](Cc3ccc(-c4ccc(C(=O)O)cc4)cc3)NC(=O)CNC(=O)[C@@H](C)N(C)C(=O)[C@H](CC(=O)O)NC(=O)[C@H]([C@@H](C)c3c[nH]c4cccc(Cl)c34)NC(=O)[C@@H]3C[C@@H](N)CN3C(=O)CNC(=O)[C@H](Cc3ccc(C(=O)O)cc3)NC(=O)[C@H](Cc3c[nH]c4ccccc34)NC2=O)cc1
B9: SEQ ID NO: 150 (Example No. 150) (peptide)
peptide: cyclo([TyrEtNAc]W[Phe(4-COOH)]G[Pro(trans-4-NH2)][Trp(4-Cl)(βS-Me)]D[dNMeA]G[Bip(4'-COOH)]WS[dA][hPhe])
SMILES: CC(=O)NCCOc1ccc(C[C@@H]2NC(=O)[C@H](CCc3ccccc3)NC(=O)[C@@H](C)NC(=O)[C@H](CO)NC(=O)[C@H](Cc3c[nH]c4ccccc34)NC(=O)[C@H](Cc3ccc(-c4ccc(C(=O)O)cc4)cc3)NC(=O)CNC(=O)[C@@H](C)N(C)C(=O)[C@H](CC(=O)O)NC(=O)[C@H]([C@@H](C)c3c[nH]c4cccc(Cl)c34)NC(=O)[C@@H]3C[C@@H](N)CN3C(=O)CNC(=O)[C@H](Cc3ccc(C(=O)O)cc3)NC(=O)[C@H](Cc3c[nH]c4ccccc34)NC2=O)cc1
B10: SEQ ID NO: 146 (Example No. 146) (peptide)
peptide: cyclo([TyrEtNAc]W[Phe(4-COOH)]G[Pro(trans-4-NH2)][Trp(4-Cl)(βS-Me)]D[dNMeA]G[Bip(4'-COOH)]W[Dap(Me2)][dA][hTyr])
SMILES: CC(=O)NCCOc1ccc(C[C@@H]2NC(=O)[C@H](CCc3ccc(O)cc3)NC(=O)[C@@H](C)NC(=O)[C@H](CN(C)C)NC(=O)[C@H](Cc3c[nH]c4ccccc34)NC(=O)[C@H](Cc3ccc(-c4ccc(C(=O)O)cc4)cc3)NC(=O)CNC(=O)[C@@H](C)N(C)C(=O)[C@H](CC(=O)O)NC(=O)[C@H]([C@@H](C)c3c[nH]c4cccc(Cl)c34)NC(=O)[C@@H]3C[C@@H](N)CN3C(=O)CNC(=O)[C@H](Cc3ccc(C(=O)O)cc3)NC(=O)[C@H](Cc3c[nH]c4ccccc34)NC2=O)cc1
B11: SEQ ID NO: 154 (Example No. 154) (peptide)
peptide: cyclo([TyrEtNAc]W[Phe(4-COOH)]G[Pro(trans-4-NH2)][Trp(βS-Me,4-F)]D[dNMeA]G[Bip(4'-COOH)][1Nal][Dab][dA][hTyr])
SMILES: CC(=O)NCCOc1ccc(C[C@@H]2NC(=O)[C@H](CCc3ccc(O)cc3)NC(=O)[C@@H](C)NC(=O)[C@H](CCN)NC(=O)[C@H](Cc3cccc4ccccc34)NC(=O)[C@H](Cc3ccc(-c4ccc(C(=O)O)cc4)cc3)NC(=O)CNC(=O)[C@@H](C)N(C)C(=O)[C@H](CC(=O)O)NC(=O)[C@H]([C@@H](C)c3c[nH]c4cccc(F)c34)NC(=O)[C@@H]3C[C@@H](N)CN3C(=O)CNC(=O)[C@H](Cc3ccc(C(=O)O)cc3)NC(=O)[C@H](Cc3c[nH]c4ccccc34)NC2=O)cc1
B12: SEQ ID NO: 156 (Example No. 156) (peptide)
peptide: cyclo([TyrEtNAc]W[Phe(4-COOH)]G[Pro(trans-4-NH2)][Trp(βS-Me,4-F)]D[dNMeA]G[Bip(4'-COOH)][4Pal]L[dA][hTyr])
SMILES: CC(=O)NCCOc1ccc(C[C@@H]2NC(=O)[C@H](CCc3ccc(O)cc3)NC(=O)[C@@H](C)NC(=O)[C@H](CC(C)C)NC(=O)[C@H](Cc3ccncc3)NC(=O)[C@H](Cc3ccc(-c4ccc(C(=O)O)cc4)cc3)NC(=O)CNC(=O)[C@@H](C)N(C)C(=O)[C@H](CC(=O)O)NC(=O)[C@H]([C@@H](C)c3c[nH]c4cccc(F)c34)NC(=O)[C@@H]3C[C@@H](N)CN3C(=O)CNC(=O)[C@H](Cc3ccc(C(=O)O)cc3)NC(=O)[C@H](Cc3c[nH]c4ccccc34)NC2=O)cc1

*1 amine or outer side, *2 acyl side, *3 side chain or, on linkers, in order; H or OH if unused. [ ]: non-standard residue; d: D form. TyrEtNAc = L-tyrosine O-ethyl acetamide, (S)-3-(4-(2-acetamidoethoxy)phenyl)-2-aminopropanoic acid, CC(=O)NCCOc1ccc(C[C@H](N[*:1])C(=O)[*:2])cc1; hSOMe = (S)-2-amino-4-methoxybutanoic acid, COCC[C@H](N[*:1])C(=O)[*:2]; Trp(4-Cl)(βS-Me) = C[C@@H](c1c[nH]c2cccc(Cl)c12)[C@H](N)C(=O)O; Pro(trans-4-NH2) = O=C([C@@H]1C[C@@H](N[*:3])CN1[*:1])[*:2]; Trp(βS-Me,4-F) = C[C@@H](c1c[nH]c2cccc(F)c12)[C@H](N)C(=O)O; Bip(4'-COOH) = N[C@@H](Cc1ccc(-c2ccc(C(=O)O)cc2)cc1)C(=O)O; SerOMe = O-methyl-L-serine, COC[C@H](N[*:1])C(=O)[*:2]; Phe(4-COOH) = N[C@@H](Cc1ccc(C(=O)O)cc1)C(=O)O; 1Nal = N[C@@H](Cc1cccc2ccccc12)C(=O)O; hTyr = N[C@@H](CCc1ccc(O)cc1)C(=O)O; hPhe = N[C@@H](CCc1ccccc1)C(=O)O; 4Pal = N[C@@H](Cc1ccncc1)C(=O)O; Dap(Me2) = CN(C)C[C@H](N)C(=O)O; dDab = NCC[C@@H](N)C(=O)O; dNMeA = CN[C@H](C)C(=O)O; Dab = NCC[C@H](N)C(=O)O; Nva = CCC[C@H](N)C(=O)O

These results are taken from patent US20230406885A1, “CYCLIC PEPTIDES FOR TRAPPING INTERLEUKIN-1 BETA” (MERCK SHARP & DOHME LLC, priority 2022, published 2023).

This test concerns the target Recombinant human IL-1β (BioLegend 579404) (human, UniProt P01584 117-269). The experiment in a line: cell-based or functional assay.
Turning to B1, the “MRC5 IC50” value was 0.403 nM.
Next, B2: 0.0483 nM; B3: 0.0926 nM; B4: 0.06 nM.
With B5, the “MRC5 IC50” value worked out at 0.81 nM.
For B6, the “MRC5 IC50” value was 0.088 nM.
On to B7, for which the “MRC5 IC50” value was found to be 0.22 nM.
Next, B8: 0.0759 nM; B9: 0.0633 nM.
With B10, the “MRC5 IC50” value came out at 0.114 nM.
Regarding B11, the “MRC5 IC50” value amounted to 0.196 nM.
For B12, the “MRC5 IC50” value was 0.948 nM.
